Experimental data reported in paper PMC9482650, “Quantitative fragmentomics allow affinity mapping of interactomes” (Nature Communications, 2022).

T1: CARD11, Q9BXL7
T1 sequence (Q9BXL7 662-765, limits assumed, looked up): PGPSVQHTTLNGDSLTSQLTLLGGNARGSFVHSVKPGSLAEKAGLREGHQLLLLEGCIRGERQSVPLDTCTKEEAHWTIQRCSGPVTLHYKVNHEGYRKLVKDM

T2: MPP2, Q14168
T2 sequence (Q14168 180-250, limits assumed, looked up): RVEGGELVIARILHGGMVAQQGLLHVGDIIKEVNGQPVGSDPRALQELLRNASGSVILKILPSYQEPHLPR

T3: DFNB31_1, Q9P202
T3 sequence (Q9P202 135-233, limits assumed, looked up): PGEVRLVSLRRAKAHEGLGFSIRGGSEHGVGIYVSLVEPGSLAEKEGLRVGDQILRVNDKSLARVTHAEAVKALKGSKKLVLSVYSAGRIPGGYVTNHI

T4: SHANK1, Q9Y566
T4 sequence (Q9Y566 658-767, limits assumed, looked up): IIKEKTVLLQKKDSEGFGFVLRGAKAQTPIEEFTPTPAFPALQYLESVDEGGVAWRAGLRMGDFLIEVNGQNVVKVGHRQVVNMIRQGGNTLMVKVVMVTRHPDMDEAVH

T5: PARD3B_1, Q8TEW8
T5 sequence (Q8TEW8 196-299, limits assumed, looked up): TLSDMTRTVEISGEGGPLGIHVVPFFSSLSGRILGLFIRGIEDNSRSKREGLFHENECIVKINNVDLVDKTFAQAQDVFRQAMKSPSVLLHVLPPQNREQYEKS

T6: PTPN13_1, Q12923
T6 sequence (Q12923 1088-1188, limits assumed, looked up): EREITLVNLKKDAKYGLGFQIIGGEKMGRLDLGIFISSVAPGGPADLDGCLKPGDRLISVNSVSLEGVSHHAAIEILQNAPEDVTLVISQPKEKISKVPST

T7: SNTG2, Q9NY99
T7 sequence (Q9NY99 68-166, limits assumed, looked up): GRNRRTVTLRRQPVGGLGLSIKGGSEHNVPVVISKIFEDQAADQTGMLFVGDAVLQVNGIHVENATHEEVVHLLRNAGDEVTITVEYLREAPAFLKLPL

T8: GRIP1_4, Q9Y3R0
T8 sequence (Q9Y3R0 467-571, limits assumed, looked up): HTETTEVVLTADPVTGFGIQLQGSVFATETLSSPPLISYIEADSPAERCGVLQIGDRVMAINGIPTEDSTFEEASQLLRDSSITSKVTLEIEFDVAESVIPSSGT

T9: SIPA1L2, Q9P2F8
T9 sequence (Q9P2F8 945-1036, limits assumed, looked up): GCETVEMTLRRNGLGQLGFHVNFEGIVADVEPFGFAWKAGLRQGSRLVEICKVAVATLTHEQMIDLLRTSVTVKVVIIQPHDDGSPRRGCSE

T10: DFNB31_2, Q9P202
T10 sequence (Q9P202 274-371, limits assumed, looked up): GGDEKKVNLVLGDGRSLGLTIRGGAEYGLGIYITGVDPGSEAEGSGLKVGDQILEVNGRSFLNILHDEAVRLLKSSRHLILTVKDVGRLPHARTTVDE

T11: LNX2_2, Q8N448
T11 sequence (Q8N448 334-432, limits assumed, looked up): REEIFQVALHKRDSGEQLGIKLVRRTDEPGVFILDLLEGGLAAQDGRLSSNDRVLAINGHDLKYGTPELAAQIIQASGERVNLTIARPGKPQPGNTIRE

T12: PDZD7_3, Q9H5P4
T12 sequence (Q9H5P4 857-944, limits assumed, looked up): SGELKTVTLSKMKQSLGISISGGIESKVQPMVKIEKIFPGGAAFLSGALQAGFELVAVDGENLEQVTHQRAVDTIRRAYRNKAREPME


How the values were obtained:
Assay in all cases: holdup assay
Design in all cases: key: below the threshold = too weak to quantify, mostly under pKd 3.1 to 4
Settings in all cases: plain residues with an end cap or a label only (N-terminal biotin on a linker: ado-ado)
CARD11, Q9BXL7 = target: T1, CARD11, Q9BXL7
MAGI2_6, Q86UL8 = target: MAGI2_6, Q86UL8
MAGI2_6, Q86UL8, sequence (Q86UL8 1141-1229): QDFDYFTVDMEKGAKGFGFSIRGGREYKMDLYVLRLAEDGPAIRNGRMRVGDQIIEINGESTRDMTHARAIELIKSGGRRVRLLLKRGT

MPP2, Q14168 = target: T2, MPP2, Q14168
DFNB31_1, Q9P202 = target: T3, DFNB31_1, Q9P202
GIPC2, Q8TF65 = target: GIPC2, Q8TF65
GIPC2, Q8TF65, sequence (Q8TF65 112-203): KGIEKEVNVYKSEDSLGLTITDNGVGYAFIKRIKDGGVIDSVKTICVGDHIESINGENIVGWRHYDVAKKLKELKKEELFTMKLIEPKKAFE

SHANK1, Q9Y566 = target: T4, SHANK1, Q9Y566
PARD3B_1, Q8TEW8 = target: T5, PARD3B_1, Q8TEW8
MAGI1_1, Q96QZ7 = target: MAGI1_1, Q96QZ7
MAGI1_1, Q96QZ7, sequence (Q96QZ7 1-106): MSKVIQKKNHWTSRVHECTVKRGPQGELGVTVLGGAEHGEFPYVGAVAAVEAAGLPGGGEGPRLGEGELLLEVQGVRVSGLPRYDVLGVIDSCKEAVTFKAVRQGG

NHERF4_1, Q86UT5-2 = target: NHERF4_1, Q86UT5-2
NHERF4_1, Q86UT5-2, sequence (Q86UT5 other isoform, or with tags, fused parts or gaps): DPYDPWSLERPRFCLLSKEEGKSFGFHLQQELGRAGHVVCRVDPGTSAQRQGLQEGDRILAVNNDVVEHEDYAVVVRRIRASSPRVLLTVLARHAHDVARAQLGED

GRID2IP_2, A4D2P6 = target: GRID2IP_2, A4D2P6
GRID2IP_2, A4D2P6, sequence (A4D2P6 272-370): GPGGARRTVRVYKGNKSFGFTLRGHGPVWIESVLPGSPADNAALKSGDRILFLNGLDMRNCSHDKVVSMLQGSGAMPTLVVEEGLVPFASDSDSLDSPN

Inadl_9, Q8NI35 = target: Inadl_9, Q8NI35
Inadl_9, Q8NI35, sequence (Q8NI35 1530-1615): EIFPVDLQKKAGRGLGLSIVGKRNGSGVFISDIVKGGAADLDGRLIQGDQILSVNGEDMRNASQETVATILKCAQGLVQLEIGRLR

GRASP, Q7Z6J2 = target: GRASP, Q7Z6J2
GRASP, Q7Z6J2, sequence (Q7Z6J2 96-193): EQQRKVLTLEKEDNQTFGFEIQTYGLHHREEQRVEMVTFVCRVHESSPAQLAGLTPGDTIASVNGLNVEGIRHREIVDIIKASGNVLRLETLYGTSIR

PTPN13_1, Q12923 = target: T6, PTPN13_1, Q12923
SNTG2, Q9NY99 = target: T7, SNTG2, Q9NY99
GRIP1_4, Q9Y3R0 = target: T8, GRIP1_4, Q9Y3R0
LDB3, O75112 = target: LDB3, O75112
LDB3, O75112, sequence (O75112 1-94): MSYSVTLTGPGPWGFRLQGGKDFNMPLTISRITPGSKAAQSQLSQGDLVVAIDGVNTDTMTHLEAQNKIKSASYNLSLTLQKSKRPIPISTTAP

SIPA1L2, Q9P2F8 = target: T9, SIPA1L2, Q9P2F8
DLG4_1, P78352 = target: DLG4_1, P78352
DLG4_1, P78352, sequence (P78352 62-152): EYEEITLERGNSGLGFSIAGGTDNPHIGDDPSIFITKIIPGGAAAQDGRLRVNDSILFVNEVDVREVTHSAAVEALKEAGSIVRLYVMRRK

DFNB31_2, Q9P202 = target: T10, DFNB31_2, Q9P202
LNX1_1, Q8TBB1 = target: LNX1_1, Q8TBB1
LNX1_1, Q8TBB1, sequence (Q8TBB1 261-371): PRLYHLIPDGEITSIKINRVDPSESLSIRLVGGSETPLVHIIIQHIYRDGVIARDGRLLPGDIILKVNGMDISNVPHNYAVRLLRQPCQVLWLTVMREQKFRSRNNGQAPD

NHERF2_2, Q15599 = target: NHERF2_2, Q15599
NHERF2_2, Q15599, sequence (Q15599 142-238): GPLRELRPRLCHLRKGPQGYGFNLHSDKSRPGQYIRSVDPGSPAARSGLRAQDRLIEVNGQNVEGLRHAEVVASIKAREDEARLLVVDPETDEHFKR

IL16_1, Q14005 = target: IL16_1, Q14005
IL16_1, Q14005, sequence (Q14005 210-306): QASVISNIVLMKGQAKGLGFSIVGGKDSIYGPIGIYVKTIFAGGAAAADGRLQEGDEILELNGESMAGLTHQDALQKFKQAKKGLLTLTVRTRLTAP

SCRIB_3, Q14160 = target: SCRIB_3, Q14160
SCRIB_3, Q14160, sequence (Q14160 999-1103): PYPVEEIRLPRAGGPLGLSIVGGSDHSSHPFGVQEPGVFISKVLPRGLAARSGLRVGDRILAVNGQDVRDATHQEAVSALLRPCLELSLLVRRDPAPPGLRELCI

LNX2_2, Q8N448 = target: T11, LNX2_2, Q8N448
PDZD7_3, Q9H5P4 = target: T12, PDZD7_3, Q9H5P4

Binder | pKd (CARD11, Q9BXL7) | pKd (MAGI2_6, Q86UL8) | pKd (MPP2, Q14168) | pKd (DFNB31_1, Q9P202) | pKd (GIPC2, Q8TF65) | pKd (SHANK1, Q9Y566) | pKd (PARD3B_1, Q8TEW8) | pKd (MAGI1_1, Q96QZ7) | pKd (NHERF4_1, Q86UT5-2) | pKd (GRID2IP_2, A4D2P6) | pKd (Inadl_9, Q8NI35) | pKd (GRASP, Q7Z6J2) | pKd (PTPN13_1, Q12923) | pKd (SNTG2, Q9NY99) | pKd (GRIP1_4, Q9Y3R0) | pKd (LDB3, O75112) | pKd (SIPA1L2, Q9P2F8) | pKd (DLG4_1, P78352) | pKd (DFNB31_2, Q9P202) | pKd (LNX1_1, Q8TBB1) | also measured
EAVTVESTSL [SLC22A11, Q9NSA0] | below the threshold | 4.2 | below the threshold | 3.98 | below the threshold | 5.68 | 4.43 | below the threshold | 4.55 | 5.32 | below the threshold | 5.36 | below the threshold | 3.64 | below the threshold | below the threshold | below the threshold | 3.65 | below the threshold | 3.5 | pKd (NHERF2_2, Q15599): 5.45; pKd (IL16_1, Q14005): below the threshold; pKd (SCRIB_3, Q14160): 4.75; pKd (LNX2_2, Q8N448): 3.67; pKd (PDZD7_3, Q9H5P4): 4.8
QQGLLPHSSC [TYRO3, Q06418] | below the threshold | below the threshold | below the threshold | below the threshold | 3.53 | below the threshold | below the threshold | below the threshold | 3.66 | 3.75 | below the threshold | 3.97 | below the threshold | below the threshold | below the threshold | below the threshold | below the threshold | below the threshold | below the threshold | below the threshold | pKd (NHERF2_2, Q15599): below the threshold; pKd (IL16_1, Q14005): below the threshold; pKd (SCRIB_3, Q14160): below the threshold; pKd (LNX2_2, Q8N448): below the threshold; pKd (PDZD7_3, Q9H5P4): 3.9
KSRPENGTVC [TMEM178B, H3BS89] | below the threshold | below the threshold | below the threshold | below the threshold | below the threshold | below the threshold | below the threshold | below the threshold | below the threshold | 3.66 | below the threshold | below the threshold | 3.59 | below the threshold | below the threshold | below the threshold | below the threshold | below the threshold | below the threshold | below the threshold | pKd (NHERF2_2, Q15599): below the threshold; pKd (IL16_1, Q14005): below the threshold; pKd (SCRIB_3, Q14160): 3.66; pKd (LNX2_2, Q8N448): 4.32; pKd (PDZD7_3, Q9H5P4): below the threshold
